In paper PMC5261807 (2017):
Non-standard residues stand in square brackets, D forms with d. No end group written: not given here. Arg(Me2a) = CN(C)C(=N)NCCC[C@H](N)C(=O)O; Lys(Me3) = C[N+](C)(C)CCCC[C@H](N)C(=O)O; Arg(Me2s) = CN=C(NC)NCCC[C@H](N)C(=O)O; pT = C[C@@H](OP(=O)(O)O)[C@H](N)C(=O)O; Lys(Me2) = CN(C)CCCC[C@H](N)C(=O)O; pS = N[C@@H](COP(=O)(O)O)C(=O)O; Lys(Me) = CNCCCC[C@H](N)C(=O)O

Key:
[1] = target: T1, Bdf1 bromodomain 1 (GST-tagged, WT) (Saccharomyces cerevisiae (strain ATCC …, UniProt P35817)); assay: histone peptide array probed with recombinant GST-bromodomain, signal normalised to myc peptide control
T1 chain: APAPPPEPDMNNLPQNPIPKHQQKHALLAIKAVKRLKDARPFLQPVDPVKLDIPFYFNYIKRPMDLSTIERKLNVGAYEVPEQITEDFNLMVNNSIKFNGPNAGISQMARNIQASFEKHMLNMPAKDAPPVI

[2] = target: T2, Bdf1 bromodomain 2 (GST-tagged, WT) (Saccharomyces cerevisiae (strain ATCC …, UniProt P35817)); assay: as above
T2 chain: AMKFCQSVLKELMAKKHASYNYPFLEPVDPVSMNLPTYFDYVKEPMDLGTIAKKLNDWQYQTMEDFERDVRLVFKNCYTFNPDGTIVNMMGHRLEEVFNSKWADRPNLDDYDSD

B1: H3 1-19 (peptide)
chain: ARTKQTARKSTGGKAPRKQ
modifications: A R T K Q T A Rme2a Kme2 S pT G G K A P R K Q
A binding score [1] of 0.00323 and a binding score [2] of 0 were found for B1 in this work.

B2: H3 16-35 (peptide)
chain: PRKQLATKAA[Arg(Me2s)][Lys(Me2)][pS]APATGG
A binding score [1] of 0.017 and a binding score [2] of 0 were found for B2 in this work.

B3: H4 1-19 (peptide)
chain: SGRGKGGKGLGKGGAKRHR
modifications: S G Rme2s G K G G K G L G K G G A K R H R
A binding score [1] of 0.00646 and a binding score [2] of 0 were found for B3 in this work.

B4: H3 1-19 (peptide)
chain: ARTKQTA[Arg(Me2a)][Lys(Me3)]S[pT]GGKAPRKQ
A binding score [1] of 0 and a binding score [2] of 0 were found for B4 in this work.

B5: H3 1-19 (peptide)
chain: ARTKQTARKSTGGKAPRKQ
modifications: A R T K Q T A R K pS T G G Kac A P R K Q
A binding score [1] of 0.0299 and a binding score [2] of 0.115 were found for B5 in this work.

B6: H3 1-19 (peptide)
chain: ARTKQTARKSTGGKAPRKQ
modifications: A R T K Q T A R K pS T G G K A P R K Q
A binding score [1] of 0 and a binding score [2] of 0 were found for B6 in this work.

B7: H3 1-19 (peptide)
chain: A[Arg(Me2s)]T[Lys(Me)]QTA[Arg(Me2s)][Lys(Me2)]STGGKAPRKQ
A binding score [1] of 0.00197 and a binding score [2] of 0 were found for B7 in this work.

B8: H4 1-19 (peptide)
chain: SGRGKGGKGLGKGGAKRHR
modifications: S G R G K G G K G L G Kac G G A K R H R
A binding score [1] of 0.00448 and a binding score [2] of 0.0271 were found for B8 in this work.

B9: H2a 1-19 (peptide)
chain: SGRGKQGGKARAK(Ac)AKSRSS
A binding score [1] of 0.00932 and a binding score [2] of 0.0115 were found for B9 in this work.

B10: H3 1-19 (peptide)
chain: ARTKQTARKSTGGKAPRKQ
modifications: A R T K Q T A R Kme3 S T G G Kac A P R K Q
A binding score [1] of 0.0133 and a binding score [2] of 0.0479 were found for B10 in this work.

B11: H3 16-35 (peptide)
chain: PRKQLATKAARK(Me)[pS]APATGG
A binding score [1] of 0.0151 and a binding score [2] of 0 were found for B11 in this work.
